The values below come from publication PMC4470285, “A cell cycle-controlled redox switch regulates the topoisomerase IV activity” (Genes & Development, 2015).

The target in series [1] is NstA(C8Y)-GFP (C. crescentus). The series is described as follows: non-reducing SDS-PAGE with immunoblot; GFP fusions expressed from the xylX locus in C. crescentus; reducing against non-reducing SDS-PAGE; disulfide-linked dimer; also synchronized cells at 0 and 60 min. For orientation: In western blotting, separated proteins are transferred to a membrane and probed.
In series [2] the target is NstA-seGFP (C. crescentus). In words: not stated; cells overproducing NstA-seGFP, with or without 7.5 uM NEM (Supplemental Fig. S11B).
Series [3] deals with the molecule itself. The series is described as follows: non-reducing SDS-PAGE with immunoblot; GFP fusions expressed from the xylX locus in C. crescentus; reducing against non-reducing SDS-PAGE; disulfide-linked dimer; also synchronized cells at 0 and 60 min.

The stoichiometry N is a count of units in the complex or per binding partner. NstA(C8Y)-GFP (natural protein) came in with a stoichiometry N in series [1] of 2.

NstA-seGFP (natural protein): the stoichiometry N in series [2] worked out at 2.

B1: NstA-GFP (natural protein, C. crescentus, UniProt A0A0H3CC90 1-66, looked up)
chain: MQVFTFFCVESDGSVPRFDVTPCADDAAARVRAFELLDMHHRCDFVEVWRGAQRVFDVFAQQVAAA
notes: NstA (CCNA_03091), C. crescentus, predicted protein of 66 residues; also called functional C-terminal GFP version of wild-type NstA; xylX::Pxyl-nstA-gfp; source: wild-type C. crescentus, expressed from the xylX locus on the chromosome, in lysate; not shown: GFP, C-terminal, kept
Consider B1, for which the “stoichiometry N” value in series [3] was determined as 2.
